Results as given in US20250250355A1 (BIOSION, published 2025).
Read-outs that look alike come from different tables or passages of the source. One block for each binder: values may come before it.

Experiments:
[1] = molecular target: T1, full length human SIRPα on cell membranes (HEK293-SIRPα cells; 293F-SIRPα cells) (human, UniProt P78324 31-504); assay: cell based binding FACS on HEK293-SIRPα cells, MFI
T1 construct: whole, on cells; also called cell surface human SIRPα; cell surface SIRPα

[2] = molecular target: T2, full length human SIRPβ on cell membranes (HEK293-SIRPβ cells; 293F cells expressing human SIRPβ) (human, UniProt O00241 30-398); assay: cell based binding FACS on HEK293-SIRPβ cells, MFI
T2 construct: whole, on cells; also called cell surface human SIRPβ

[3] = molecular target: human SIRPα-isoform 2-his protein (human); assay: indirect ELISA on coated human SIRPα-isoform 2-his, OD(450-630)
[4] = molecular target: T1, full length human SIRPα on cell …; assay: cell based blocking FACS on 293F-SIRPα cells; blocked ligand: biotin-labeled human CD47-Fc, MFI
[5] = molecular target: T3, human SIRPα-his protein (human, UniProt P78324 31-370); assay: competitive ELISA on coated human SIRPα-his; blocked ligand: biotin-labeled human CD47-his, OD(450-630)
[6] = molecular target: T4, full length human SIRPγ endogenously expressed on Jurkat cells (human, UniProt Q9P1W8 29-387); assay: cell based binding FACS on Jurkat cells (endogenous human SIRPγ), MFI; curve flat near MFI 0 (see non_binding)
T4 construct: whole, on cells; also called human SIRPγ expressed on Jurkat cells

[7] = molecular target: T5, recombinant human SIRPα-Fc protein (human, biotin-labeled (sites not given)); assay: capture ELISA, antibody captured on anti-mouse IgG F(ab')2, biotin-labeled human SIRPα-Fc in solution, OD(450-630)
T5 construct: also called biotin-labeled human SIRPα-Fc protein

[8] = molecular target: T6, cynomolgus SIRPα-his protein (cynomolgus); assay: indirect ELISA on coated cynomolgus SIRPα-his, OD(450-630); curve rises only above about 3 nM, to OD about 0.9 at the last point, no plateau
T6 construct: also called Cyno SIRPα-his; monkey SIRPα
T6 chain: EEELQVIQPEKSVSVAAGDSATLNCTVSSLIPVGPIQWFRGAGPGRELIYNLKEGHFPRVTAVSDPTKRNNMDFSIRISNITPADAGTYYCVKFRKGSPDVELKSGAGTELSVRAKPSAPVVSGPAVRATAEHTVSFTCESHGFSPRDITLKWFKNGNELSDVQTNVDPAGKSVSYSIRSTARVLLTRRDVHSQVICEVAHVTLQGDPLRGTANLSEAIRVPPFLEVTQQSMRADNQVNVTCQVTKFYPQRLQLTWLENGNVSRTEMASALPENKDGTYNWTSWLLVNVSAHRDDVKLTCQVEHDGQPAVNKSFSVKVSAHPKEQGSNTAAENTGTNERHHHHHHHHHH

[9] = molecular target: T6, cynomolgus SIRPα-his protein; assay: indirect ELISA on coated cynomolgus SIRPα-his, OD(450-630)
[10] = molecular target: T2, full length human SIRPβ on cell …; assay: cell based binding FACS on HEK293-SIRPβ cells, MFI; plateau at MFI about 1300
[11] = molecular target: T7, mouse SIRPα-his (mouse, UniProt P97797 35-363, limits assumed); assay: indirect ELISA on coated mouse SIRPα-his, OD(450-630)
T7 chain: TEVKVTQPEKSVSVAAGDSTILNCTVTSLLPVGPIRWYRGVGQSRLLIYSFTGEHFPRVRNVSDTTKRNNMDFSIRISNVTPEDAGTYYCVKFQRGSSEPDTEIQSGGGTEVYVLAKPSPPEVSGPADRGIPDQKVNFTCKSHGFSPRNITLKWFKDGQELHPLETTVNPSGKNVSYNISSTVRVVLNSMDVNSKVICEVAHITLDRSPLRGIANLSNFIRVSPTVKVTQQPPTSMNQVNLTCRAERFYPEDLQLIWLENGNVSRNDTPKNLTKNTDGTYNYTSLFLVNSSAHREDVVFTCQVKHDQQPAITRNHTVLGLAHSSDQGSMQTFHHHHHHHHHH

[12] = molecular target: human SIRPα-V8-his protein (human, UniProt P78324 31-370, limits assumed); assay: indirect ELISA on coated human SIRPα-V8-his, OD(450-630)
[13] = molecular target: T6, cynomolgus SIRPα-his protein; assay: indirect ELISA on coated cynomolgus SIRPα-his, OD(450-630)
[14] = molecular target: human SIRPα-isoform 2-his protein (human); assay: indirect ELISA on coated human SIRPα-isoform 2-his, OD(450-630); remark: listed apart in the source
[15] = molecular target: T1, full length human SIRPα on cell …; assay: cell based binding FACS on 293F cells expressing human SIRPα, MFI
[16] = molecular target: T2, full length human SIRPβ on cell …; assay: cell based binding FACS on 293F cells expressing human SIRPβ, MFI
[17] = molecular target: human SIRPγ-his protein (human, UniProt Q9P1W8 29-360, limits assumed); assay: SPR (Biacore T200), antibody captured on Protein A chip, human SIRPγ-his flowed
[18] = molecular target: T4, full length human SIRPγ endogenously …; assay: cell based binding FACS on Jurkat cells (endogenous human SIRPγ), MFI
[19] = molecular target: human SIRPβ-his protein (human, UniProt O00241 30-371); assay: SPR (Biacore T200), antibody captured on Protein A chip, human SIRPβ-his flowed
[20] = molecular target: T8, human FcRn protein (Cat #FCM-H5286, Acro biosystems Inc.) (human, UniProt P55899 24-297; P61769 21-119); assay: SPR (Biacore); human FcRn covalently linked to CM5 chip, antibody flowed from 62.5 µg/ml; pH 6.0
[21] = molecular target: T8, human FcRn protein (Cat #FCM-H5286, …); assay: SPR (Biacore); human FcRn covalently linked to CM5 chip, antibody flowed from 62.5 µg/ml; pH 7.4
[22] = molecular target: T1, full length human SIRPα on cell …; assay: cell based blocking FACS on 293F-SIRPα cells; blocked ligand: human CD47 protein (CD47-Fc), MFI
[23] = molecular target: T3, human SIRPα-his protein; assay: SPR (Biacore T200); antibody captured on Protein A chip, human SIRPα-his flowed from 200 nM; 1:1 Langmuir fit
[24] = molecular target: T6, cynomolgus SIRPα-his protein; assay: SPR (Biacore T200); antibody captured on Protein A chip, cynomolgus SIRPα-his flowed from 200 nM; 1:1 Langmuir fit
[25] = molecular target: human SIRPα protein (soluble, used on 293F-CD47 cells) (human, UniProt P78324 31-370, limits assumed); assay: cell based blocking FACS on 293F-CD47 cells; soluble human SIRPα protein blocked from binding cell surface human CD47, MFI
[26] = molecular target: T8, human FcRn protein (Cat #FCM-H5286, …); assay: SPR (Biacore); human FcRn covalently linked to CM5 chip, antibody flowed from 62.5 µg/ml; pH 6.0; pH 6.0

T4 sequence (Q9P1W8 29-387): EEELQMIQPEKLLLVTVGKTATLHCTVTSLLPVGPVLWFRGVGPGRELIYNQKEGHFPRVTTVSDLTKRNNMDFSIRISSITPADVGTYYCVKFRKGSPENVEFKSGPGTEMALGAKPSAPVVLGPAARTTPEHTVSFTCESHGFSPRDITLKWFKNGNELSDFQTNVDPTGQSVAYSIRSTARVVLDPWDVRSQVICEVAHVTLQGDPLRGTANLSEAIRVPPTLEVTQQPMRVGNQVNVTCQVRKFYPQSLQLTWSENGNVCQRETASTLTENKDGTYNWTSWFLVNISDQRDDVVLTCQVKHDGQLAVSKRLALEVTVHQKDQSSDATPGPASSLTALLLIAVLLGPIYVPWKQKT
Chain of human SIRPα-isoform 2-his protein (human) (chain, as listed by the source limits assumed): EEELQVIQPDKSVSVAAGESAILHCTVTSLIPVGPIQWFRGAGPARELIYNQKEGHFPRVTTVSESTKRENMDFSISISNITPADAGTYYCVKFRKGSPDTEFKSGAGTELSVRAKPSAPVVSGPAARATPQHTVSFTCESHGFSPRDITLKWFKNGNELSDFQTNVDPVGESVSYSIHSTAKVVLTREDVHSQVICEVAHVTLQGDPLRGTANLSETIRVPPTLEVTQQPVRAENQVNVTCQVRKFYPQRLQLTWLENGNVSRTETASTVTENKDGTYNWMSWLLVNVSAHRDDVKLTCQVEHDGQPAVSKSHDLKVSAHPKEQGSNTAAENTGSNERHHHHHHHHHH
T3 sequence (P78324 other isoform, or with tags, fused parts or gaps limits assumed): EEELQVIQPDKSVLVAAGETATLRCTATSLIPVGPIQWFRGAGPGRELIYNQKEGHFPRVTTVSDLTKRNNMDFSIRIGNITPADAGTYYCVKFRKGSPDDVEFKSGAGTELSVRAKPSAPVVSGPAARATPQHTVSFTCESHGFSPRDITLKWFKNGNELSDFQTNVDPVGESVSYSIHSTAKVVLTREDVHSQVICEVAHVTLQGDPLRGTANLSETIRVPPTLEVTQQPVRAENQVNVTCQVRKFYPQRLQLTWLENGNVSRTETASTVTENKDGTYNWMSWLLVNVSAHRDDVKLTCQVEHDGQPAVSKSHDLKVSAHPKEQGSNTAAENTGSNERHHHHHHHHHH
T2 sequence (O00241 30-398): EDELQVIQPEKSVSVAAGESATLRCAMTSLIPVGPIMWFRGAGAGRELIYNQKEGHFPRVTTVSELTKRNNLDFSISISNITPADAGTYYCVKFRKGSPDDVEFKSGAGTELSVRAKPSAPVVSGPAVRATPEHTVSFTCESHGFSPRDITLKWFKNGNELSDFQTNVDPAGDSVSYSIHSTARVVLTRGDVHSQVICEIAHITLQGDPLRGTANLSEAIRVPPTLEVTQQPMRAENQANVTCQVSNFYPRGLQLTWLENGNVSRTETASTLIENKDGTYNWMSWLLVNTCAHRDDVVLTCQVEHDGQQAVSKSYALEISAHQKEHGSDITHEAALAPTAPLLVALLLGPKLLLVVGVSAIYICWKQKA
T1 sequence (P78324 31-504): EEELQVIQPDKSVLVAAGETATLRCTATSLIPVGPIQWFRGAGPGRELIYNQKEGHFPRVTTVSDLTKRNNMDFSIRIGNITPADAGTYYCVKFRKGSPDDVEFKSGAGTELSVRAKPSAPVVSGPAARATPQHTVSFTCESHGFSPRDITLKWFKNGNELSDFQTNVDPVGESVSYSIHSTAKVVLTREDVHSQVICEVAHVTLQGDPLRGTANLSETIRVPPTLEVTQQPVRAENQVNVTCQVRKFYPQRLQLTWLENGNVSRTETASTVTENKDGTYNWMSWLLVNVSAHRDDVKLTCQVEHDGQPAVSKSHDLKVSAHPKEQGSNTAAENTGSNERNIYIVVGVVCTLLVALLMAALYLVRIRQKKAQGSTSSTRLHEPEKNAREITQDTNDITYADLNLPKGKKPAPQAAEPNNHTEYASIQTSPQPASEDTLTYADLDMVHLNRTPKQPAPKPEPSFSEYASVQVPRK
T5 sequence (chain, as listed by the source limits assumed): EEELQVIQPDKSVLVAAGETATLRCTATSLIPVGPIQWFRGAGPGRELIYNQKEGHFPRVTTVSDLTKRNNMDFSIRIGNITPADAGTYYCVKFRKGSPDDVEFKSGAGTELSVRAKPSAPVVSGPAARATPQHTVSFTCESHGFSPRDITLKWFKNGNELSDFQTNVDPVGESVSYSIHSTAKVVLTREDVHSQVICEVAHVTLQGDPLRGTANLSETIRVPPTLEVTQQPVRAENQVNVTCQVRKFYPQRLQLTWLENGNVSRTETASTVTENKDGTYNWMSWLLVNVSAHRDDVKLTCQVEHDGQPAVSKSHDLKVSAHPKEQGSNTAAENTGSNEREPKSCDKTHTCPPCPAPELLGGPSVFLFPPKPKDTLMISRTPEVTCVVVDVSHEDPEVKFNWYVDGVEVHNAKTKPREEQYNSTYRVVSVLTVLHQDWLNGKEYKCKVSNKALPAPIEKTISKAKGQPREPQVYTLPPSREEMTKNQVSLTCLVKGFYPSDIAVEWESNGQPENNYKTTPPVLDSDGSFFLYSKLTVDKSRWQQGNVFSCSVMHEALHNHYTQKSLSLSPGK
Chain of human SIRPβ-his protein (O00241 other isoform, or with tags, fused parts or gaps limits assumed): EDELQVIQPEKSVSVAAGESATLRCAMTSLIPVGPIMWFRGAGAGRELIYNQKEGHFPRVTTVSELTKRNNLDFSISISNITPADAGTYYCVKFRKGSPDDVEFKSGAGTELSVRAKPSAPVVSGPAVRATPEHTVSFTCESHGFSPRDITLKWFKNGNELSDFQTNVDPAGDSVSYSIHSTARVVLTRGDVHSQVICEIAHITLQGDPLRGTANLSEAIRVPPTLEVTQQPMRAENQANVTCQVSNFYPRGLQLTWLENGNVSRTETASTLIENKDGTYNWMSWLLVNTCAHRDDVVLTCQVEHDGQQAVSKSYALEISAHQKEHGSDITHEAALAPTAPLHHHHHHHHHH
Chain of human SIRPα-V8-his protein (P78324 other isoform, or with tags, fused parts or gaps limits assumed): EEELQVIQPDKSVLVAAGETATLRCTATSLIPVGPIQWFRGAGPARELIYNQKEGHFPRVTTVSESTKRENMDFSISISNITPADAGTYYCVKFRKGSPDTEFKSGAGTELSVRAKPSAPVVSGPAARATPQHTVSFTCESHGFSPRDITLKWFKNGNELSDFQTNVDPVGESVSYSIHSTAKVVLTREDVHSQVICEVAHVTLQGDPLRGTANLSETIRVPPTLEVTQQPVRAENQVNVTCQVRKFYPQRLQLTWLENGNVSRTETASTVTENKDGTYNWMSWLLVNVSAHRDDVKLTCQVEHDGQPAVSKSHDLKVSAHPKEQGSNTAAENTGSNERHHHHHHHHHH
Chain of human SIRPα protein (soluble, used on 293F-CD47 cells) (P78324 31-370 limits assumed): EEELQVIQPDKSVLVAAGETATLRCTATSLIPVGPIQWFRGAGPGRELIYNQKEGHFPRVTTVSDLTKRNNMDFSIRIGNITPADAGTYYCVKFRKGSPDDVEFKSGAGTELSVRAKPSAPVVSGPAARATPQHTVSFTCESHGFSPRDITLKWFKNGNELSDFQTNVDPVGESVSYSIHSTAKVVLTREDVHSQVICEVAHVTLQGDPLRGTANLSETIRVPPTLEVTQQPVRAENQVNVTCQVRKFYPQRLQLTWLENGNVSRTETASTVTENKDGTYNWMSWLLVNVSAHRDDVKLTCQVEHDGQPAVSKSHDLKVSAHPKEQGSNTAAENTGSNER
Chain of human SIRPγ-his protein (Q9P1W8 29-360 limits assumed): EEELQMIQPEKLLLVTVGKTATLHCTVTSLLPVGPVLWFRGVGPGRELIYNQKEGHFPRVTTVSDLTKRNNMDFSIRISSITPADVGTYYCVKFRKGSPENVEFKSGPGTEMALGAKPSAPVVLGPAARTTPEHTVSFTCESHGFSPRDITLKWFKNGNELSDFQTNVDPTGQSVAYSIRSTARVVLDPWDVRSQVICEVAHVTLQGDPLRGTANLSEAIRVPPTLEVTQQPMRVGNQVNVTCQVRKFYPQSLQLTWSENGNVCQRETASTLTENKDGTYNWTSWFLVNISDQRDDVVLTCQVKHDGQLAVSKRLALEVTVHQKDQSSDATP

B2: E1D5E1F1 (antibody, V domains shown)
VH: QVQLVQSGAEVKKPGASVKVSCKASGYTFTSFAMQWVRRAPGQRLEWMGWIIAGNGDTKYSQNFQDRVTLTRDTSANTAYMDLSGLRSEDTAVYYCARGSGFSGYGYFDKWGQGTLVTVSS
VL: DIQMTQSPSSLSASVGDRVTITCRASHSISSYLNWYQQKPGKVPKLLIYASSSLQSGVPSRFSGNGSGTDFTLIISSLQPEDFATYYCQQSHSIPLTFGGGTKVEIK
notes: Purified from a hybridoma of AceMouse mice: human heavy and light chain variable regions with mouse constant regions
- EC50 [1]: 0.927 nM
- EC50 [9]: 0.094 nM
- EC50 [3]: 0.119 nM
- EC50 [10]: 0.738 nM
- IC50 [4]: 0.706 nM
- IC50 [5]: 2.17 nM
- EC50 [6]: 0.63 nM
- EC50 [7]: 0.0715 nM

B3: E1H10B7-CDRV1-IgG1 (YTE) (antibody)
heavy: QVQLVQSGAEVKKPGASVKVSCKASGYTFTSYAMQWVRQAPGQRLEWMGWIIAGNADTKYSQNFQDRVTLTRDTSANTAYMDLSGLRSEDTAVYYCARGSGFSGYGYFDKWGQGTLVTVSSASTKGPSVFPLAPSSKSTSGGTAALGCLVKDYFPEPVTVSWNSGALTSGVHTFPAVLQSSGLYSLSSVVTVPSSSLGTQTYICNVNHKPSNTKVDKKVEPKSCDKTHTCPPCPAPEAQGGPSVFLFPPKPKDTLYITREPEVTCVVVDVSHEDPEVKFNWYVDGVEVHNAKTKPREEQYNSTYRVVSVLTVLHQDWLNGKEYKCQVSNKALPAPIEKTISKAKGQPREPQVYTLPPSRDELTKNQVSLTCLVKGFYPSDIAVEWESNGQPENNYKTTPPVLDSDGSFFLYSKLTVDKSRWQQGNVFSCSVMHEALHNHYTQKSLSLSPG
light: DIQMTQSPSSLSASVGDRVTITCRASHSISSYLNWYQQKPGKVPKLLIYASSSLQSGVPSRFSGSGSGTDFTLIISSLQPEDFATYYCQQSHSIPLTFGGGTKVEIKRTVAAPSVFIFPPSDEQLKSGTASVVCLLNNFYPREAKVQWKVDNALQSGNSQESVTEQDSKDSTYSLSSTLTLSKADYEKHKVYACEVTHQGLSSPVTKSFNRGEC
- binding result [11]: no binding (tested: ~67 nM)
- EC50 [12]: 0.141 nM
- EC50 [13]: 0.209 nM
- EC50 [14]: 0.173 nM
- EC50 [15]: 0.956 nM
- EC50 [16]: 1.47 nM
- binding result [17]: no binding (tested: antigen starting at 200 nM)
- binding result [18]: no binding (tested: ~67 nM)
- binding result [19]: no binding
- Kd [20]: 28.8 nM
- Kd [21]: 129 nM
- IC50 [22]: 2.62 nM
- Kd [23]: 14.6 nM
- koff [23]: 0.00188 s⁻¹
- kon [23]: 129000 M⁻¹ s⁻¹
- Kd [24]: 553 nM
- koff [24]: 0.0146 s⁻¹
- kon [24]: 26400 M⁻¹ s⁻¹
- IC50 [25]: 0.368 nM

Continued, in another order:

- EC50 [1]: 0.303 nM
- EC50 [2]: 0.217 nM
- EC50 [3]: 0.105 nM
- IC50 [4]: 0.146 nM
- IC50 [5]: 2.13 nM
- EC50 [6]: 106 nM
- EC50 [7]: 0.0491 nM
- EC50 [8]: 48.1 nM
B1: E1F1B1C3 (antibody, V domains shown)
VH: QVQLVQSGAEVKKPGASVKVSCKASGYTFTSNAMHWVRQVPGQGLEWMGWIKAGNGEIKYSQKFQGRVTITRDTSATTAYMELSSLRSEDTAVYYCARGDYYYYYMDVWGKGTTVTVSS
VL: DIQVTQSPSSLSASVGDRVTITCRASQSISDFLNWYQQKPGKAPKLLIHAASSLQNGVPSRFSGSGSGTDFSLTINSLQPEDFATYYCQQSYSTPLSFGGGTKVEIK

- binding result [11]: no binding (tested: ~67 nM)
- EC50 [12]: 0.151 nM
- EC50 [13]: 0.224 nM
- EC50 [14]: 0.184 nM
- EC50 [15]: 0.973 nM
- EC50 [16]: 1.23 nM
- binding result [18]: no binding (tested: ~67 nM)
- binding result [19]: no binding
- Kd [26]: 94.1 nM
- IC50 [22]: 2.3 nM
- Kd [23]: 8.78 nM
- koff [23]: 0.00118 s⁻¹
- kon [23]: 134000 M⁻¹ s⁻¹
- Kd [24]: 376 nM
- koff [24]: 0.0132 s⁻¹
- kon [24]: 35000 M⁻¹ s⁻¹
- IC50 [25]: 0.347 nM
B4: E1H10B7-CDRV1-IgG1 (antibody)
heavy: not shown
light: B3 light
- binding result [17]: no binding (tested: antigen starting at 200 nM)
